Assay results as given in paper PMC9538160.

Biological target: Human recombinant p65 protein (SinoBiological 12054-H09E) (human) (UniProt Q04206)
Experiment: BLI; Forte-Bio Octet Red; anti-p65 Ab (5 μg/mL) captured on Protein A biosensors, 25 μg/mL recombinant p65 bound to it, ICP22 in solution at 62.5, 125, 250, 500 or 1000 nM; PBS

Sequence of UniProt Q04206 (Q04206 whole entry, stated change not applied): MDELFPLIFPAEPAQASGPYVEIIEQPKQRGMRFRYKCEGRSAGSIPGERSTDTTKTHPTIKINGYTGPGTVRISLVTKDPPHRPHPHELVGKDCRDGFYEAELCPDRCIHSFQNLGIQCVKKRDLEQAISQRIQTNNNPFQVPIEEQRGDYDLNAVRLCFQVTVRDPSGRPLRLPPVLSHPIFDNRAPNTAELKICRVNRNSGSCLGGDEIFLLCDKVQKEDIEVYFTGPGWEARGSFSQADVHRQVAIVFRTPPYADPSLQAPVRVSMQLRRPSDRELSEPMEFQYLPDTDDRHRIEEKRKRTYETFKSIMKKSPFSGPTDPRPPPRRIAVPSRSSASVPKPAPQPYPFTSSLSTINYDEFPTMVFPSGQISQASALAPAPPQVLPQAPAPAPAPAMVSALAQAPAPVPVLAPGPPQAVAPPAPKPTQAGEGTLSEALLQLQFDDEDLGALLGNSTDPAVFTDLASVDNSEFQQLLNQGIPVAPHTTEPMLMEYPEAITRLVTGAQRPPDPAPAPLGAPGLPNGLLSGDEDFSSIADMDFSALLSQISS

HA-tagged HSV-2 ICP22, purified (from UniProt P14379 1-197) (natural protein)
Kd: 218 nM
